Common to all, as to experiment: ELISA, rHA coated
(ELISA stands for enzyme-linked immunosorbent assay.)

In test [1] the target is recombinant HA subtype H2 (A/Swine/MO/06 (H2N3)) (influenza A virus).
Test [2] concerns the target recombinant HA subtype H7 (A/Netherlands/219/03 (H7N7)) (influenza A virus).
Test [3] concerns the target recombinant HA subtype H9 (A/chicken/HK/G9/97 (H9N2)) (influenza A virus).
In test [4] the target is recombinant HA subtype H3 (A/Perth/16/09 (H3N2)) (influenza A virus).
The target in test [5] is recombinant HA subtype H5 (A/Vietnam/1203/04 (H5N1)) (influenza A virus).
Test [6] deals with recombinant HA subtype H6 (A/teal/HK/W312/97 (H6N1)) (influenza A virus).

Bounds are passed on as bounds.

By EC50 is commonly meant the midpoint of the concentration-response curve.

B1: Antibody 10 (antibody, V domains shown)
VH: QVQLQQSGPGLVKPSQTLSLTCAISGDSVSSNSATWNWIRQSPSRGLEWLGRTYYRSKWYNDYADFLKRRITINPDTSNNEVSLRLTSVTPDDTALYYCARGGHITVFGVNIDAFDVWGQGTMVTVSS
VL: DIQMTQSPSSLSASVGDRITISCRTSQSLRSYLHWYQQKPGKAPKLLIYASSTLQSGVPSRFSGSGSGTDFTLTISNLQPEDFATYYCQLSRTFGQGTKVEIK
On to B1, for which the EC50 in test [1] was determined as 0.075 µg/mL; in test [2] it was 0.034 µg/mL; in test [3] it was 2.7 µg/mL; in test [4], 0.049 µg/mL; in test [5] it was 0.058 µg/mL; in test [6] it was 0.097 µg/mL.

B2: Antibody 5 (antibody, V domains shown)
VH: QVQLQQSGPGLVKPSQTLSLTCAISGDRVSSNSAVWNWIRQSPSRGLEWLGRTYYRSKWYYDYAESVKSRIVIDPDTSKNQVSLQLNSVTPEDSAIYYCARGGHITVFGLNIDAYDIWGQGAMVTVSS
VL: DIQMTQSPSSLSASVGDRVTISCRAQSLSSYLHWYQQKPGQPPKLLIYAATTLQSGVPSRFSGSGSGTDFTLTISTFQAEDVATYYCQQSRTFGQGTKVEIK
Turning to B2, the EC50 in test [1] was 0.048 µg/mL; in test [2], 0.024 µg/mL; in test [3], > 6 µg/mL; in test [4], 0.03 µg/mL; in test [5], 0.041 µg/mL; in test [6], 0.047 µg/mL.

B3: Antibody 6 (antibody, V domains shown)
VH: QVQLQQSGPGLVKPSQTLSLTCAISGDRVSSNSAVWNWIRQSPSRGLEWLGRTYYRSKWYYDYAESVKSRIVIDPDTSKNQVSLQLNSVTPEDSAIYYCARGGHITEFGLNIDAYDIWGQGAMVTVSS
VL: DIQMTQSPSSLSASVGDRVTISCRAQSLSSYLHWYQQKPGQPPKLLIYAATTLQSGVPSRFSGSGSGTDFTLTISTFQAEDVATYYCQQSRTFGQGTKVEIK
For the molecule B3, the EC50 in test [1] was 0.213 µg/mL; in test [2], 0.116 µg/mL; in test [3], > 6 µg/mL; in test [4] it was 0.064 µg/mL; in test [5] it was 0.256 µg/mL; in test [6], 0.214 µg/mL.

B4: Antibody 8 (antibody, V domains shown)
VH: QVQLQQSGPGLVKPSQTLSLTCVISGDTVSSNRATWNWMRQSPLRGLEWLGRTYYRSKWYNDYAVSVKSRVVINPDTSKNQVSLQLNTVTPDDSGVYFCARGGHITVFGVNIDAFDIWGLGTKVTVSS
VL: DIQMTQSPSSLSASVGDRVTISCRASQRLNSYLHWYQQTPGQAPKLLIYATSTLQSGVSPRFSGSGSGTDFTLTISSLQPEDVATYYCQLSRTFGHGTKVEIK
As for B4, the EC50 was 0.058 µg/mL in test [1]; 0.015 µg/mL in test [2]; > 6 µg/mL in test [3]; 0.067 µg/mL in test [4]; 0.044 µg/mL in test [5]; 0.091 µg/mL in test [6].

The values are drawn from US20200109188A1.
